Key:
[1] = molecular target: T1, ErbB2-ECD (Homo sapiens, UniProt P04626); assay: SPR, ErbB2-ECD amine-coupled on chip, analyte injected, 25 °C, 1:1 Langmuir fit; affibody dimeric
[2] = molecular target: T1, ErbB2-ECD; assay: SPR, ErbB2-ECD amine-coupled on chip, analyte injected, 25 °C, 1:1 Langmuir fit
[3] = system: HER2-positive MDA-MB-453 cells; assay: Binding of 2D3-dendrimer conjugates to MDA-MB-453 cells (Cy5 MFI); format: cell-based, human; conditions: for MFI (mean fluorescence intensity, Cy5): MDA-MB-453 cells incubated with dendrimers, triplicate wells, mean with standard deviation; for binding to MDA-MB-453 cells: flow cytometry, result in words
[4] = system: MDA-MB-231/HER2 (HER2 knock in) cells; assay: In vitro association study (flow cytometry), MDA-MB-231/HER2; format: cell-based, human; conditions: MDA-MB-231/HER2, 3.33 nM, over 24 h, mean±SD
[5] = molecular target: T2, HER2 (human epidermal growth factor receptor 2) on cells (human, UniProt P04626 23-1255); assay: flow cytometry (Cy5), BT-474 cells, 1 h, conjugate at 3 mM (so in the source)
T2 construct: whole, on cells; also called ERBB2; HER2 receptor

[6] = molecular target: T2, HER2 (human epidermal growth factor …); assay: flow cytometry (Cy5), BT-474 cells, 1 h, conjugate at 6 mM (so in the source)
[7] = molecular target: T2, HER2 (human epidermal growth factor …); assay: flow cytometry (Cy5), BT-474 cells, 1 h, conjugate at 12 mM (so in the source)
[8] = molecular target: T2, HER2 (human epidermal growth factor …); assay: flow cytometry (Cy5), BT-474 cells, 1 h, conjugate at 25 mM (so in the source)
[9] = molecular target: T2, HER2 (human epidermal growth factor …); assay: flow cytometry (Cy5), MDA-MB-231/HER2 cells, 0.5 h
[10] = molecular target: T2, HER2 (human epidermal growth factor …); assay: flow cytometry (Cy5), MDA-MB-231 parental cells (HER2 lo, control), 0.5 h

Affibody protein (HER2, Affibody AB) (designed binder)
Kd [1]: 0.266 nM
koff [1]: 0.00051 s⁻¹
kon [1]: 1.9e+06 M⁻¹ s⁻¹

Affibody-BCN/N3-PEG24CO-[N(PN)2][Lys]2[Lys]4[Lys]8[(α-NHGlu-vc-PAB-MMAE)8(ε-NH-COPEG2000)8], G3, Compound 78 (designed binder)
Kd [2]: 36 nM
koff [2]: 0.00114 s⁻¹
kon [2]: 32000 M⁻¹ s⁻¹

(MeTzPh)PEG4CO-NHPEG24CO—[N(PN)2][Lys]2[Lys]4[Lys]8[Lys]16[((α-NHCy5)1(α-NHAc)15)(ε-NH-COPEG1100)16], G4 [Compound 53]
MFI (mean fluorescence intensity, Cy5) [3]: 6.827 ± 0.07
binding to MDA-MB-453 cells [3]: did not bind
percent of cellular association [4]: significantly lower association

(MeTzPh)PEG4CO-NHPEG24CO—[N(PN)2][Lys]2[Lys]4[Lys]8[((α-NHCy5)1(α-NHAc)7)(ε-NH-COPEG1100)8], G3 [Compound 52]
MFI (mean fluorescence intensity, Cy5) [3]: 3.097 ± 0.01
binding to MDA-MB-453 cells [3]: did not bind
percent of cellular association [4]: significantly lower association

Affibody-BCN/N3-PEG24CO-[N(PN)2][Lys]2[Lys]4[Lys]8[(α-NHGlu-vc-PAB-MMAE)8(ε-NH-COPEG1100)8], G3, Compound 77 (designed binder)
Kd [2]: 50 nM
koff [2]: 0.0013 s⁻¹
kon [2]: 25000 M⁻¹ s⁻¹

(MeTzPh)PEG4CO-NHPEG24CO—[N(PN)2][Lys]2[Lys]4[Lys]8[Lys]16[Lys]32[((α-NHCy5)1(α-NHAc)31)(ε-NH-COPEG1100)32], G5 [Compound 54]
MFI (mean fluorescence intensity, Cy5) [3]: 4.349 ± 0.08
binding to MDA-MB-453 cells [3]: did not bind
percent of cellular association [4]: significantly lower association

B1: [[(ε-NHCO-PEG1100)8(α-NHDOTA)4.75(α-NHCy5)0.5(α-NH2)2.75][Lys]8[Lys]4[Lys]2[Lys]-CONH-CH2-CH2-S-]2MAL-PEG3-NHCO-PEG24-CONH-PEG4-(PhTzMe)/TCO-NHCO-PEG24-(MAL)Me/ … (VHH)
VHH: EVQLVESGGSLVQPGGSLRLSCAASGFTFDDYAMSWVRQVPGKGLEWVSSINWSGTHTDYADSVKGRFTISRNNANNTLYLQMNSLKSEDTAVYYCAKNWRDAGTTWFEKSGSAGQGTQVTVSS
modifications: the additional cysteine (in …) coupled to the methylmaleimide of linker SRS-12 (intermediate SRS-14), whose TCO is joined to the tetrazine of dendrimer SRS-4-Mal (maleimide core, Cy5, DOTA, PEG1100)
MFI [5]: 915
MFI [6]: 1460
MFI [7]: 2270
MFI [8]: 2150

B2: [(ε-NHCO-PEG1100)16(α-DOTA)7(α-NHCy5)1(α-NH2)8][Lys]16[Lys]8[Lys]4[Lys]2[Lys]-(PN)NCO-PEG24-CONH-PEG4-(PhTzMe)/TCO-NHCO-PEG24-(MAL)Me/Cys-Nanobody SRS-17 (VHH)
VHH: EVQLVESGGSLVQPGGSLRLSCAASGFTFDDYAMSWVRQVPGKGLEWVSSINWSGTHTDYADSVKGRFTISRNNANNTLYLQMNSLKSEDTAVYYCAKNWRDAGTTWFEKSGSAGQGTQVTVSS
modifications: the additional cysteine (in …) coupled to the methylmaleimide of linker SRS-12 (intermediate SRS-14), whose TCO is joined to the tetrazine of dendrimer HH-2 (1 Cy5, 7 DOTA, 16 PEG1100)
MFI [5]: 1020
MFI [6]: 1530
MFI [7]: 2270
MFI [8]: 2550

B3: [(ε-NHCO-PEG1100)16(α-DOTA)7(α-NHCy5)1(α-NH2)8][Lys]16[Lys]8[Lys]4[Lys]2[Lys]-(PN)NCO-PEG24-CONH-PEG4-(PhTzMe)/TCO-PEG3-NHCO-PEG24-Glu-DBCO/N3-Nanobody SRS-22 (VHH)
VHH: EVQLVESGGSLVQPGGSLRLSCAASGFTFDDYAMSWVRQVPGKGLEWVSSINWSGTHTDYADSVKGRFTISRNNANNTLYLQMNSLKSEDTAVYYCAKNWRDAGTTWFEKSGSAGQGTQVTVSS
modifications: # (unnatural amino acid, p-azido-phenylalanine, after ...QVTVSS) clicked to the DBCO of SRS-22a (linker Compound 51 on dendrimer HH-2: 1 Cy5, 7 DOTA, 16 PEG1100)
MFI [5]: 2640
MFI [6]: 4910
MFI [7]: 6550
MFI [8]: 6490

B4: BHALys[Lys]2[Lys]4[((α-NH-COPEG24NH-COPEG4(PhMeTz)/TCO-PEG3NH-COPEG24NH-Glu-DBCO/N3-Nanobody)1(α-Lys(α-NHCy5)(ε-NHDFO))1(α-NH2)2)(ε-NH-COPEG1000)4], G2, … (VHH)
VHH: EVQLVESGGSLVQPGGSLRLSCAASGFTFDDYAMSWVRQVPGKGLEWVSSINWSGTHTDYADSVKGRFTISRNNANNTLYLQMNSLKSEDTAVYYCAKNWRDAGTTWFEKSGSAGQGTQVTVSS
modifications: # (unnatural amino acid, p-azido-phenylalanine, after ...QVTVSS) clicked to the DBCO of linker Compound 51, whose TCO is joined to the tetrazine on the surface of the G2 lysine dendrimer Compound 25 (Cy5, DFO, 4 PEG1000)
notes: also called BHA-G2-PEG1000 + NB
percent of cellular association [9]: 190%
percent of cellular association [10]: 30.8%

B5: [(ε-NHCO-PEG1100)16(α-NHCy5)1(α-NHDOTA)8(α-NH2)7][Lys]16[Lys]8[Lys]4[Lys]2[Lys]-CONH-CH2-CH2-S-(Me)MAL-PEG24-CONH-Bn-Tz(Me)/TCO-NHCO-PEG24-(MAL)Me/Cys-Nanobody … (VHH)
VHH: EVQLVESGGSLVQPGGSLRLSCAASGFTFDDYAMSWVRQVPGKGLEWVSSINWSGTHTDYADSVKGRFTISRNNANNTLYLQMNSLKSEDTAVYYCAKNWRDAGTTWFEKSGSAGQGTQVTVSS
modifications: the additional cysteine (in …) coupled to the methylmaleimide of linker SRS-12 (intermediate SRS-14), whose TCO is joined to the tetrazine of dendron RP-5 (1 Cy5, 8 DOTA, 16 PEG1100)
MFI [5]: 716
MFI [6]: 732
MFI [7]: 1370
MFI [8]: 1450

B6: BHA[Lys]2[Lys]4[Lys]8[Lys]16[((α-NH-COPEG24NH-COPEG4(PhMeTz)/TCO-PEG3NH-COPEG24NH-Glu-DBCO/N3-Nanobody)1(α-Lys(α-NHCy5)(ε-NHDFO))1(α-NH2)14(ε-NH-COPEG1000)16], … (VHH)
VHH: EVQLVESGGSLVQPGGSLRLSCAASGFTFDDYAMSWVRQVPGKGLEWVSSINWSGTHTDYADSVKGRFTISRNNANNTLYLQMNSLKSEDTAVYYCAKNWRDAGTTWFEKSGSAGQGTQVTVSS
modifications: # (unnatural amino acid, p-azido-phenylalanine, after ...QVTVSS) clicked to the DBCO of linker Compound 51, whose TCO is joined to the tetrazine on the surface of the G4 lysine dendrimer Compound 28 (Cy5, DFO, 16 PEG1000)
notes: One nanobody on each dendrimer; also called single 2D3-dendrimer conjugate; BHA-G4-PEG1000 + NB
percent of cellular association [9]: 157%
percent of cellular association [10]: 20%

B7: BHALys[Lys]2[Lys]4[Lys]8[((α-NH-COPEG24NH-COPEG4(PhMeTz)/TCO-PEG3NH-COPEG24NH-Glu-DBCO/N3-Nanobody)1(α-Lys(α-NHCy5)(ε-NHDFO))1(α-NH2)6)(ε-NH-COPEG1000)8], G3, … (VHH)
VHH: EVQLVESGGSLVQPGGSLRLSCAASGFTFDDYAMSWVRQVPGKGLEWVSSINWSGTHTDYADSVKGRFTISRNNANNTLYLQMNSLKSEDTAVYYCAKNWRDAGTTWFEKSGSAGQGTQVTVSS
modifications: # (unnatural amino acid, p-azido-phenylalanine, after ...QVTVSS) clicked to the DBCO of linker Compound 51, whose TCO is joined to the tetrazine on the surface of the G3 lysine dendrimer Compound 27 (Cy5, DFO, 8 PEG1000)
notes: also called BHA-G3-PEG1000 + NB
percent of cellular association [9]: 218%
percent of cellular association [10]: 25.1%

B8: BHA[Lys]2[Lys]4[Lys]8[Lys]16[Lys]32[((α-NH-COPEG24NH-COPEG4(PhMeTz)/TCO-PEG3NH-COPEG24NH-Glu-DBCO/N3-Nanobody)1(α-Lys(α-NHCy5)(ε-NHDFO))1(α-NH2)30(ε-NH-COPEG100 … (VHH)
VHH: EVQLVESGGSLVQPGGSLRLSCAASGFTFDDYAMSWVRQVPGKGLEWVSSINWSGTHTDYADSVKGRFTISRNNANNTLYLQMNSLKSEDTAVYYCAKNWRDAGTTWFEKSGSAGQGTQVTVSS
modifications: # (unnatural amino acid, p-azido-phenylalanine, after ...QVTVSS) clicked to the DBCO of linker Compound 51, whose TCO is joined to the tetrazine on the surface of the G5 lysine dendrimer Compound 29 (Cy5, DFO, 32 PEG1000)
notes: also called BHA-G5-PEG1000 + NB
percent of cellular association [9]: 165%
percent of cellular association [10]: 17.5%

B9: BHALys[Lys]2[Lys]4[Lys]8[Lys]16[((α-NH-COPEG24NH-COPEG4(PhTzMe)/TCO-PEG3-NHCO-PEG24-(MAL)Me/Cys-Nanobody)1(α-NHCy5)1(α-NHDOTA))10(α-NH2)4)(ε-NH-COPEG1000)16] … (VHH)
VHH: EVQLVESGGSLVQPGGSLRLSCAASGFTFDDYAMSWVRQVPGKGLEWVSSINWSGTHTDYADSVKGRFTISRNNANNTLYLQMNSLKSEDTAVYYCAKNWRDAGTTWFEKSGSAGQGTQVTVSS
modifications: the additional cysteine (in …) coupled to the methylmaleimide of SRS-21a (linker SRS-12 on G4 dendrimer SRS-1: 1 Cy5, 10 DOTA, 16 PEG1000)
MFI [5]: 3100
MFI [6]: 4640
MFI [7]: 5260
MFI [8]: 4760

B10: [[(ε-NHCO-PEG1100)8(α-NHDOTA)4.75(α-NHCy5)0.5(α-NH2)2.75][Lys]8[Lys]4[Lys]2[Lys]-CONH-CH2-CH2-S-]2MAL-PEG3-NHCO-PEG24-CONH-PEG4-(PhTzMe)/TCO-PEG3-NHCO-PEG24-Glu … (VHH)
VHH: EVQLVESGGSLVQPGGSLRLSCAASGFTFDDYAMSWVRQVPGKGLEWVSSINWSGTHTDYADSVKGRFTISRNNANNTLYLQMNSLKSEDTAVYYCAKNWRDAGTTWFEKSGSAGQGTQVTVSS
modifications: # (unnatural amino acid, p-azido-phenylalanine, after ...QVTVSS) clicked to the DBCO of SRS-20a (linker Compound 51 on dendrimer SRS-4-Mal: maleimide core, Cy5, DOTA, PEG1100)
MFI [5]: 1500
MFI [6]: 2170
MFI [7]: 3140
MFI [8]: 3400

From patent US20240293588A1, “THERAPEUTIC CONJUGATES” (Starpharma Pty Ltd, priority 2020, published 2024)
